# Assay results published in patent publication US20250361288A1 (Gilead, published 2025).
# Changes are numbered by the printed parent chain. Names and notes keep the numbering of the source.
# T1: human HVEM extracellular domain fused with an Fc fragment at the C-terminus (human, UniProt Q92956 39-202)
# T1 construct: extracellular domain; Bought; also called hHVEM; not shown: Fc fragment at the C-terminus
# T1 sequence (looked up): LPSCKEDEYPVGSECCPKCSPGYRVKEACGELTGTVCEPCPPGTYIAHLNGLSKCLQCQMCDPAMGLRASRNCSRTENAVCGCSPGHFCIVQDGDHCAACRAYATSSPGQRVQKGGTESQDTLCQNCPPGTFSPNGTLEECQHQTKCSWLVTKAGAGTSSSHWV
# T2: mouse HVEM extracellular domain fused with an Fc fragment at the C-terminus (mouse, UniProt Q80WM9 39-206, limits assumed)
# T2 construct: extracellular domain; Bought; also called mHVEM; not shown: Fc fragment at the C-terminus
# T2 sequence (looked up): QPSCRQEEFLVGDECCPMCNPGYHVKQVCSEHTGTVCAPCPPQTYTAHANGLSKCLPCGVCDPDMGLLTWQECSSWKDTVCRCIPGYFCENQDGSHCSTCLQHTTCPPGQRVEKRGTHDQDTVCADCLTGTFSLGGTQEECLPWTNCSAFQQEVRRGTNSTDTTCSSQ
# B1: LIGHT-4 (ligand)
# chain: DGPAGSWEQLIQERRSHEVNPAAHLTGANSSLTGSGGPLLWETQLGLAFLRGLSYHDGALVVTKAGYYYIYSKVQLGGMGCPLGLASPITHGLYKRTPRYPEELELLVSQQSPCGRATSSSRVWWDSSFLGGVVHLEAGEKVVVRVLDERLVRLLDGTRSYFGAFMV
# notes: Printed mutations: V152M, T161P, R228L; Soluble protein carries an N-terminal His tag
# B2: LIGHT-11 (ligand)
# chain: B1 chain with G77S, M79V, P88T, L147S, L155R
# notes: Printed mutations: G150S, L220S; Soluble protein carries an N-terminal His tag
# B3: LIGHT-73 (ligand)
# chain: B1 chain with Q44E, M79V, P88G, L147S, L154T, L155R
# notes: Printed mutations: Q117E, T161G, L220S, L227T; Soluble protein carries an N-terminal His tag
# B4: LIGHT-41 (ligand)
# chain: B1 chain with G77R, M79V, S87G, P88T, L147S, L155R
# notes: Printed mutations: G150R, S160G, L220S; Soluble protein carries an N-terminal His tag
# B5: LIGHT-43 (ligand)
# chain: B1 chain with G77R, M79V, S87T, P88T, L147S, L155R
# notes: Printed mutations: G150R, S160T, L220S; Soluble protein carries an N-terminal His tag
# B6: LIGHT-80 (ligand)
# chain: B1 chain with Q44N, M79V, S87G, P88G, L147S, E149S, L154T, L155R
# notes: Printed mutations: Q117N, S160G, T161G, L220S, E222S, L227T; Soluble protein carries an N-terminal His tag
# B7: LIGHT-77 (ligand)
# chain: B1 chain with Q44E, M79V, S87G, L147S, L154T, L155R
# notes: Printed mutations: Q117E, S160G, T161P, L220S, L227T; Soluble protein carries an N-terminal His tag
# B8: LIGHT-51 (ligand)
# chain: B1 chain with A28D, M79V, S87N, P88T, L147S, L155R
# notes: Printed mutations: A101D, S160N, L220S; Soluble protein carries an N-terminal His tag
# B9: LIGHT-32 (ligand)
# chain: B1 chain with M79V, S87R, P88T, L147S, L155R
# notes: Printed mutations: S160R, L220S; Soluble protein carries an N-terminal His tag
# B10: LIGHT-8 (ligand)
# chain: B1 chain with G77S, M79V, S87G, P88T, L147S, L155R
# notes: Printed mutations: G150S, S160G, L220S; Soluble protein carries an N-terminal His tag
# B11: LIGHT-44 (ligand)
# chain: B1 chain with G77R, M79V, L85P, P88T, L147S, L155R
# notes: Printed mutations: G150R, L158P, L220S; Soluble protein carries an N-terminal His tag
# B12: LIGHT-81 (ligand)
# chain: B1 chain with Q44N, M79V, S87G, L147S, E149S, L154T, L155R
# notes: Printed mutations: Q117N, S160G, T161P, L220S, E222S, L227T; Soluble protein carries an N-terminal His tag
# B13: LIGHT-75 (ligand)
# chain: B1 chain with Q44N, M79V, S87G, L147S, L154T, L155R
# notes: Printed mutations: Q117N, S160G, T161P, L220S, L227T; Soluble protein carries an N-terminal His tag
# B14: LIGHT-82 (ligand)
# chain: B1 chain with Q44E, M79V, S87G, P88G, L147S, E149S, L154T, L155R
# notes: Printed mutations: Q117E, S160G, T161G, L220S, E222S, L227T; Soluble protein carries an N-terminal His tag
# B15: LIGHT-50 (ligand)
# chain: B1 chain with N29R, L47Q, M79V, P88T, H135R, K141E, L155R
# notes: Printed mutations: N102R, L120Q, H208R, K214E; Soluble protein carries an N-terminal His tag
# B16: LIGHT-9 (ligand)
# chain: B1 chain with G77S, M79V, P88G, L147S, L155R
# notes: Printed mutations: G150S, T161G, L220S; Soluble protein carries an N-terminal His tag
# B17: LIGHT-6 (ligand)
# chain: B1 chain with M79V, P88T, W125Q, L147N, D148G, L155R
# notes: Printed mutations: W198Q, L220N, D221G; Soluble protein carries an N-terminal His tag
# B18: LIGHT-38 (ligand)
# chain: B1 chain with M79V, P88T, Q111R, W125Q, L155R
# notes: Printed mutations: Q184R, W198Q; Soluble protein carries an N-terminal His tag
# B19: LIGHT-45 (ligand)
# chain: B1 chain with G77S, M79V, S87P, P88S, L147S, R150H, L155R
# notes: Printed mutations: G150S, S160P, T161S, L220S, R223H; Soluble protein carries an N-terminal His tag
# B20: LIGHT-47 (ligand)
# chain: B1 chain with L53M, M79V, P88T, A117V, H135Y, L155R
# notes: Printed mutations: L126M, A190V, H208Y; Soluble protein carries an N-terminal His tag
# B21: LIGHT-79 (ligand)
# chain: B1 chain with Q44E, M79V, S87G, P88S, L147S, L154T, L155R
# notes: Printed mutations: Q117E, S160G, T161S, L220S, L227T; Soluble protein carries an N-terminal His tag
# B22: LIGHT-49 (ligand)
# chain: B1 chain with L32P, Q44R, M79V, P88T, L147Q, L155R
# notes: Printed mutations: L105P, Q117R, L220Q; Soluble protein carries an N-terminal His tag
# B23: LIGHT-74 (ligand)
# chain: B1 chain with Q44N, M79V, S87G, P88G, L147S, L154T, L155R
# notes: Printed mutations: Q117N, S160G, T161G, L220S, L227T; Soluble protein carries an N-terminal His tag
# B24: LIGHT-72 (ligand)
# chain: B1 chain with Q44N, M79V, S87G, P88T, L147S, L154T, L155R
# notes: Printed mutations: Q117N, S160G, L220S, L227T; Soluble protein carries an N-terminal His tag
# B25: LIGHT-78 (ligand)
# chain: B1 chain with Q44N, M79V, S87G, P88S, L147S, L154T, L155R
# notes: Printed mutations: Q117N, S160G, T161S, L220S, L227T; Soluble protein carries an N-terminal His tag
# B26: LIGHT-85 (ligand)
# chain: B1 chain with Q44E, M79V, S87G, P88S, L147S, E149S, L154T, L155R
# notes: Printed mutations: Q117E, S160G, T161S, L220S, E222S, L227T; Soluble protein carries an N-terminal His tag
# B27: LIGHT-13 (ligand)
# chain: B1 chain with S31P, M79V, G84S, P88T, H135Y, L147R, L155R
# notes: Printed mutations: S104P, G157S, H208Y, L220R; Soluble protein carries an N-terminal His tag
# B28: LIGHT-83 (ligand)
# chain: B1 chain with Q44E, M79V, S87G, L147S, E149S, L154T, L155R
# notes: Printed mutations: Q117E, S160G, T161P, L220S, E222S, L227T; Soluble protein carries an N-terminal His tag
# What was measured:
# [1] = target: T1, human HVEM extracellular domain fused …; test: phage ELISA
# Protocol: (§1) Individual clones from the fourth selection round were grown in 96-well deep well blocks in 100 μl of 2YT broth supplemented with 50 μg/ml ampicillin at 37° C. and 220 rpm for 5 hours. Then, 5 μl of helper phages were added to each well and incubated at 37° C. for 30 minutes. After centrifuging at 3,000 rpm for 10 minutes, the cells were resuspended and grown overnight in 150 μl/well of 2YT broth supplemented with 50 μg/ml ampicillin and 50 μg/ml kanamycin.
# (§2) For the ELISA screening, 96-well ELISA plates were coated with target proteins (1 μg/ml in PBS) at 4° C. overnight and then blocked with 2% BSA for 2 hours at room temperature. The supernatant containing phage particles was added to the plates and incubated at room temperature for 1 hour. After incubation, the plates were washed five times with PBST. HRP (horseradish peroxidase) conjugated anti-M13 antibody (Sino Biological, China) was added to the wells and incubated at room temperature for 1 hour. Following another round of washing five times with PBST, 50 μl of TMB (3,3′, 5,5″-tetramethylbenzidine, #34029, ThemoFisher) was added to each well. After 5 minutes, the reaction was stopped by adding 50 μl stop solution (#C1058, Solarbio, China). The absorbance at 450 nm (OD450) was measured using a plate reader (SpectraMax M5, Molecule Devices). Wells coated with BSA were used as negative controls. Phage clones with an ELISA score ratio (target/BSA)>3 were considered positive clones.
# [2] = target: T3, human LTβR extracellular domain fused with an Fc fragment at the C-terminus (human, UniProt P36941 31-227); test: phage ELISA
# T3 construct: extracellular domain; Bought; also called hLTβR; not shown: Fc fragment at the C-terminus
# Protocol: as §1, §2
# [3] = target: T2, mouse HVEM extracellular domain fused …; test: phage ELISA
# Protocol: as §1, §2
# [4] = target: T4, mouse LTβR extracellular domain fused with an Fc fragment at the C-terminus (mouse, UniProt P50284 31-223); test: phage ELISA
# T4 construct: extracellular domain; Bought; also called mLTβR; not shown: Fc fragment at the C-terminus
# Protocol: as §1, §2
# [5] = target: T3, human LTβR extracellular domain fused …; test: ELISA on coated target-Fc
# Protocol: (§3) Nunc MaxiSorp 96-well plates (Thermofisher) were coated with target proteins (1 μg/ml), and then blocked with 2% BSA-PBS buffer for one hour. Serial dilutions of the LIGHT muteins were added with a maximum concentration of 200 ng/ml. The plates were incubated for one hour, washed four times with PBST, and then incubated with mouse anti-His tag antibody (#105327, Sino Biological) for 1 hour. The plates were further incubated with HRP-conjugated goat anti-mouse secondary antibody (#SSA006, Sino Biological) before being washed three times with PBST and treated with TMB substrate (#34029, ThermoFisher). The plates were read at 450 nm on a SpectraMax M5 microplate reader (Molecule Devices). The ELISA results were analyzed using GraphPad Prism 9.0 software and the EC50s (half maximal effective concentration) were summarized in Table 5-1 and Table 5-2.
# [6] = target: T4, mouse LTβR extracellular domain fused …; test: ELISA on coated target-Fc
# Protocol: as §3
# T4 sequence (P50284 31-223): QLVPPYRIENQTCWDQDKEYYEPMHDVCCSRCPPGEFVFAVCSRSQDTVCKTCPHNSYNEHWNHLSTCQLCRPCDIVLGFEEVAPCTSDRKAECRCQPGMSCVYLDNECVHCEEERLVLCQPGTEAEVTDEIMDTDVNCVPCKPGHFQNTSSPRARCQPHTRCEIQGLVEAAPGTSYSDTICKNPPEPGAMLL
# T3 sequence (P36941 31-227): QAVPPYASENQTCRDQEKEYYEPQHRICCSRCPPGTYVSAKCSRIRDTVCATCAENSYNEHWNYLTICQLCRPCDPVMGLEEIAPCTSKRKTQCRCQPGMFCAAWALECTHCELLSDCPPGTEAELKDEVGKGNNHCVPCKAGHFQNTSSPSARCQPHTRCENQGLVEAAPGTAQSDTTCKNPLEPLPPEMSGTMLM
Binder,binding result [1],binding result [2],binding result [3],binding result [4],EC50 [5] [µg/mL],EC50 [6] [µg/mL]
B1,no binding,binds,binds,binds,–,–
B2,no binding,–,binds,–,0.0395,0.0233
B3,binds,binds,–,binds,–,–
B4,–,–,binds,–,0.108,0.0311
B5,binds,binds,binds,binds,–,–
B6,binds,binds,–,binds,–,–
B7,binds,binds,–,binds,–,–
B8,binds,binds,binds,binds,–,–
B9,binds,–,binds,–,0.247,0.0632
B10,no binding,binds,binds,binds,–,–
B11,binds,binds,binds,binds,–,–
B12,binds,binds,–,binds,–,–
B13,binds,binds,–,binds,–,–
B14,binds,binds,–,binds,–,–
B15,binds,binds,binds,binds,–,–
B16,no binding,–,binds,–,0.0282,0.0224
B17,no binding,binds,binds,binds,–,–
B18,binds,binds,binds,binds,–,–
B19,–,–,binds,–,0.0362,0.0264
B20,binds,–,binds,–,0.228,0.0706
B21,binds,binds,–,binds,–,–
B22,binds,binds,binds,binds,–,–
B23,binds,binds,–,binds,–,–
B24,binds,binds,–,binds,–,–
B25,binds,binds,–,binds,–,–
B26,binds,binds,–,binds,–,–
B27,binds,binds,binds,binds,–,–
B28,binds,binds,–,binds,–,–
